Data published in article PMC10403316.
Where “and” joins values, the source holds several entries; their conditions need not be identical. Equal values may be shown once.

Legend:
[1] = biological target: human UBR5 E3 ubiquitin ligase, full length, with an N-terminal FLAG tag (human) (UniProt O95071); test: SEC; settings: remark: other sources report otherwise
[2] = biological target: human UBR5 E3 ubiquitin ligase, full length, with an N-terminal FLAG tag (human) (UniProt O95071); test: cryo-EM structure; settings: remark: other sources report otherwise

stoichiometry N [1]: 2 and 4 | stoichiometry N [2]: 2
Substance: human UBR5 E3 ubiquitin ligase, full length, with an N-terminal FLAG tag, O95071 1-2799
